From patent US20040132130 come the findings set out here.

The subject of the series is Ac-Ala-Ala-Pro-Thr(Man)-Pro-Val-Ala-Ala-Pro-NH2.

Sequence of His-Xpress-sOMGnT(L) (chain, as listed by the source): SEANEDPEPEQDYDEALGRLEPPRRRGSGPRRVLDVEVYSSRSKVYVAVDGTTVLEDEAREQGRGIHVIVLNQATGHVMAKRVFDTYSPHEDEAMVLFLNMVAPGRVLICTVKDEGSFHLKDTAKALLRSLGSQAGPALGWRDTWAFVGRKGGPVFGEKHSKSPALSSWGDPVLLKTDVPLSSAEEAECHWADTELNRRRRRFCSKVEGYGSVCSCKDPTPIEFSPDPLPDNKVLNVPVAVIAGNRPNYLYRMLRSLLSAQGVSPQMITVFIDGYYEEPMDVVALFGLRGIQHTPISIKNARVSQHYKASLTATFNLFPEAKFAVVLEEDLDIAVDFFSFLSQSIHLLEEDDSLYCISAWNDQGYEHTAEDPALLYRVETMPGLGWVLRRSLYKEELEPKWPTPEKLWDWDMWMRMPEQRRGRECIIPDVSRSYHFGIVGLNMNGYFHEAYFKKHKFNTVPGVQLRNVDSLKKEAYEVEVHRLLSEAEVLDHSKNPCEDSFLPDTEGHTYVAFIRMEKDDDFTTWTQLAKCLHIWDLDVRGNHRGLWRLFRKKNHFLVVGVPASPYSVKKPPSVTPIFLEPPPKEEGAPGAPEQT

As for His-Xpress-sOMGnT(L), the Km value worked out at 1850 µM, the OMGnT activity (pmol/hr/mg protein) (pmol/hr/mg protein) was 15 and the OMGnT relative activity (%) is 100%.
